In article PMC9025429 one finds IC50 data, which are given here for 1 substance.

By IC50 is commonly meant the concentration that inhibits the measured activity by half.

This experiment concerns the target N36 peptide (HIV-1). Nature of the experiment: ELISA; competition ELISA of 6-HB formation: plate coated with the 6-HB-specific mAb NC-1; inhibitor at 0.312-20 uM with N36 (final 1 uM) and biotin-C34 (final 2 uM) in PBS, 37 °C, 1 h; streptavidin-HRP detection.

Chain of N36 peptide (HIV-1) (P03375 546-581 limits assumed): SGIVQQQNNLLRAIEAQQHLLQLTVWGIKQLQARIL

Take C10-T1144 (peptide): the IC50 is 2420 nM.
